Series [1] has as its target histone H1 (purified calf thymus H1).
For series [2], the target named is purified recombinant HA-H1b (expressed in E. coli), P10412.
Series [3] addresses H1 histones isolated from cells treated with TSA and nicotinamide, P10412.

Sequence of purified recombinant HA-H1b (expressed in E. coli), P10412 (P10412 whole entry, looked up): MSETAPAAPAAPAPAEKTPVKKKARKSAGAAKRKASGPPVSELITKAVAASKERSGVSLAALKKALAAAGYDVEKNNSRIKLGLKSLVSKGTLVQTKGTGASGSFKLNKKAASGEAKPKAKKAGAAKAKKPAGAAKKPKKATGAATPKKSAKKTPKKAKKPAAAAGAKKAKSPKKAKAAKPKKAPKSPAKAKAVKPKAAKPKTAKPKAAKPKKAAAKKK
Sequence of H1 histones isolated from cells treated with TSA and nicotinamide, P10412 (P10412 whole entry, looked up): as above

B1: baculovirus-expressed recombinant FLAG-SirT1 protein (protein)
chain: MADEAALALQPGGSPSAAGADREAASSPAGEPLRKRPRRDGPGLERSPGEPGGAAPEREVPAAARGCPGAAAAALWREAEAEAAAAGGEQEAQATAAAGEGDNGPGLQGPSREPPLADNLYDEDDDDEGEEEEEAAAAAIGYRDNLLFGDEIITNGFHSCESDEEDRASHASSSDWTPRPRIGPYTFVQQHLMIGTDPRTILKDLLPETIPPPELDDMTLWQIVINILSEPPKRKKRKDINTIEDAVKLLQECKKIIVLTGAGVSVSCGIPDFRSRDGIYARLAVDFPDLPDPQAMFDIEYFRKDPRPFFKFAKEIYPGQFQPSLCHKFIALSDKEGKLLRNYTQNIDTLEQVAGIQRIIQCHGSFATASCLICKYKVDCEAVRGDIFNQVVPRCPRCPADEPLAIMKPEIVFFGENLPEQFHRAMKYDKDEVDLLIVIGSSLKVRPVALIPSSIPHEVPQILINREPLPHLHFDVELLGDCDVIINELCHRLGGEYAKLCCNPVKLSEITEKPPRTQKELAYLSELPPTPLHVSEDSSSPERTSPPDSSVIVTLLDQAAKSNDDLDVSESKGCMEEKPQEVQTSRNVESIAEQMENPDLKNVGSSTGEKNERTSVAGTVRKCWPNRVAKEQISRRLDGNQYLFLPPNRYIFHGAEVYSDSEDDVLSSSSCGSNSDSGTCQSPSLEEPMEDESEIEEFYNGLEDEPDVPERAGGAGFGTDGDDQEAINEAISVKQEVTDMNYPSNKS
Turning to B1, in series [1], the “nicotinamide exchange reaction (NER) with H1 as acetylated substrate” value was “Histone H1 served as substrate in the SirT1-dependent NER assay” and the “release of [3H]-acetyl label from p300-acetylated H1” value is “SirT1 -released up to 70% of the total label”. For the same protein, the “release of [3H]-acetyl label from p300-acetylated recombinant H1b” value in series [2] is listed as “The same result was observed using recombinant human H1b”. The “western blot with the acetyl H1-K26 antibody after treatment with SirT1” value in series [3] was “resulted in decreased immunoreactivity”.

B2: recombinant SirT3 (protein)
chain: MAFWGWRAAAALRLWGRVVERVEAGGGVGPFQACGCRLVLGGRDDVSAGLRGSHGARGEPLDPARPLQRPPRPEVPRAFRRQPRAAAPSFFFSSIKGGRRSISFSVGASSVVGSGGSSDKGKLSLQDVAELIRARACQRVVVMVGAGISTPSGIPDFRSPGSGLYSNLQQYDLPYPEAIFELPFFFHNPKPFFTLAKELYPGNYKPNVTHYFLRLLHDKGLLLRLYTQNIDGLERVSGIPASKLVEAHGTFASATCTVCQRPFPGEDIRADVMADRVPRCPVCTGVVKPDIVFFGEPLPQRFLLHVVDFPMADLLLILGTSLEVEPFASLTEAVRSSVPRLLINRDLVGPLAWHPRSRDVAQLGDVVHGVESLVELLGWTEEMRDLVQRETGKLDGPDK
For the protein B2, in series [2], the “release of [3H]-acetyl label from p300-acetylated recombinant H1b” value was “SirT2 or SirT3 failed to significantly deacetylate H1b”.

B3: recombinant SirT2 (protein)
chain: MAEPDPSHPLETQAGKVQEAQDSDSDSEGGAAGGEADMDFLRNLFSQTLSLGSQKERLLDELTLEGVARYMQSERCRRVICLVGAGISTSAGIPDFRSPSTGLYDNLEKYHLPYPEAIFEISYFKKHPEPFFALAKELYPGQFKPTICHYFMRLLKDKGLLLRCYTQNIDTLERIAGLEQEDLVEAHGTFYTSHCVSASCRHEYPLSWMKEKIFSEVTPKCEDCQSLVKPDIVFFGESLPARFFSCMQSDFLKVDLLLVMGTSLQVQPFASLISKAPLSTPRLLINKEKAGQSDPFLGMIMGLGGGMDFDSKKAYRDVAWLGECDQGCLALAELLGWKKELEDLVRREHASIDAQSGAGVPNPSTSASPKKSPPPAKDEARTTEREKPQ
For the protein B3, the “release of [3H]-acetyl label from p300-acetylated recombinant H1b” value in series [2] is listed as “SirT2 or SirT3 failed to significantly deacetylate H1b”.

The record behind these values is patent US20070065890.
